For test [1], the target named is T1, human CD20 (human, UniProt P11836 1-297).
T1 sequence: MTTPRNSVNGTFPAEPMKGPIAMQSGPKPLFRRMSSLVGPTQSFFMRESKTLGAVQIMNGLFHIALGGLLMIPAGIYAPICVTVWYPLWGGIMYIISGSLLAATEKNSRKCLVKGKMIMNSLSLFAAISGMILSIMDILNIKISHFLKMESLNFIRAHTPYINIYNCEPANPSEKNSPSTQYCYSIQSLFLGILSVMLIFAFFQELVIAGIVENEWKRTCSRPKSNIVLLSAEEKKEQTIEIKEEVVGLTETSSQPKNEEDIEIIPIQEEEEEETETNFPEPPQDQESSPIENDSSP
Description: cell-based or functional assay.

In test [2] the target is T1, human CD20. Description: cell-based or functional assay. The source holds these as a separate data set.
Test [3] deals with T1, human CD20. Description: cell-based or functional assay. This is another data set of the same source.
The target of test [4] is T1, human CD20. Description: cell-based or functional assay. This is another data set of the same source.
Test [5] concerns the target T1, human CD20. Description: flow cytometry, hCD20-transfected MG87 cells. The procedure: Briefly, parental MG87 and human CD20-transfected MG87 cells were incubated for 30 min at 4° C. with each of the 15 human antibodies and the two control antibodies, followed by incubation with PE-conjugated anti-human IgG antibody. Binding was assessed by flow cytometry. Fluorescence intensities were compared with binding to the parental cell line and control isotype-matched sample.
For orientation: A flow cytometer gives signals particle by particle.

Test [6] deals with T2, mutant human CD20 #1 (Y77F) (human, UniProt P11836 1-297).
T2 construct: Human residues replaced by mouse residues; stably expressed on MG87 cells
T2 sequence: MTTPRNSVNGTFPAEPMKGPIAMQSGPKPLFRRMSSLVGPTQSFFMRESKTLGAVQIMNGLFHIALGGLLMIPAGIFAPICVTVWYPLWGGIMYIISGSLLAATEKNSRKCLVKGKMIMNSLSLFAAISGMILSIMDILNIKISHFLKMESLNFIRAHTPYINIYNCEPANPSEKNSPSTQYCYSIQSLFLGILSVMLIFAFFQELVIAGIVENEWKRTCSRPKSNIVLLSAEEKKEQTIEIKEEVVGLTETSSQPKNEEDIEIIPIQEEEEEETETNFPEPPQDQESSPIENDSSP
Description: FACS, mutant-hCD20 MG87 cells; 100%=best antibody. The protocol: (§1) Briefly, approximately 1×10⁶ cells from each stably transfected cell line expressing a mutant human CD20 were collected and incubated with each anti-human antibody, at 10 μg/ml, on ice for 1 hr, followed by incubation with APC-conjugated goat anti-human IgG (Jackson Immunolabs), at 10 μg/ml, on ice for 45 min. For each antibody, binding to each mutant human CD20 was assessed by flow cytometry.

Test [7] deals with T3, mutant human CD20 #2 (N163D) (human, UniProt P11836 1-297).
T3 construct: Stably expressed on MG87 cells
T3 sequence: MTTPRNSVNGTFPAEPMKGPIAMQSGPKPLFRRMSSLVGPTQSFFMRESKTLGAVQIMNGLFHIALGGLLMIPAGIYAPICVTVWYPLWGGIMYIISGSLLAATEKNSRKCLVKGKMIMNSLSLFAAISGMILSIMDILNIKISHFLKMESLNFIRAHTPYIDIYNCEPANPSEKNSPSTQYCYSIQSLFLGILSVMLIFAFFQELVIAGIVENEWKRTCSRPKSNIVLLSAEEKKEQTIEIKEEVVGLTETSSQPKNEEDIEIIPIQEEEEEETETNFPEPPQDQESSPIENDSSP
Description: FACS, mutant-hCD20 MG87 cells; 100%=best antibody. The protocol:
as §1

Test [8] deals with T4, mutant human CD20 #3 (A170S, P172S) (human, UniProt P11836 1-297).
T4 construct: Stably expressed on MG87 cells
T4 chain: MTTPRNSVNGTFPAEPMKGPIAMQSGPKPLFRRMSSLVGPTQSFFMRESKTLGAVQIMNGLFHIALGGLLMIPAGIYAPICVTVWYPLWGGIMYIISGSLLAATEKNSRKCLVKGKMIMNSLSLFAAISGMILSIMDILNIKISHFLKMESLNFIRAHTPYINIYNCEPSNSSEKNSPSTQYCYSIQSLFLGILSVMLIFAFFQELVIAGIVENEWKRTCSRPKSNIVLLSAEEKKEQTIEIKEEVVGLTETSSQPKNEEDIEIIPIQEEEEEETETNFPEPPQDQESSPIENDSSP
Description: FACS, mutant-hCD20 MG87 cells; 100%=best antibody. The protocol:
as §1

The target of test [9] is T5, mutant human CD20 #4 (N166D) (human, UniProt P11836 1-297).
T5 construct: Stably expressed on MG87 cells
T5 sequence: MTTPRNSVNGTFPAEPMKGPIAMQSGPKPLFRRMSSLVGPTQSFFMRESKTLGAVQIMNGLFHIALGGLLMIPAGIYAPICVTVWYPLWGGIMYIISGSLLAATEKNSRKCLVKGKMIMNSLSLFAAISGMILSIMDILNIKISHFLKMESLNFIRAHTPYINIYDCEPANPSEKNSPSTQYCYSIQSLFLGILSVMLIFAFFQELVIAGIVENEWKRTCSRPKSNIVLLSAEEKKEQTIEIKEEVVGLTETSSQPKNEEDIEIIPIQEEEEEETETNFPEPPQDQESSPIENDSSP
Description: FACS, mutant-hCD20 MG87 cells; 100%=best antibody. The protocol: as §1

The target of test [10] is T6, mutant human CD20 #6 (Y77F, N166D) (human, UniProt P11836 1-297).
T6 construct: Stably expressed on MG87 cells
T6 chain: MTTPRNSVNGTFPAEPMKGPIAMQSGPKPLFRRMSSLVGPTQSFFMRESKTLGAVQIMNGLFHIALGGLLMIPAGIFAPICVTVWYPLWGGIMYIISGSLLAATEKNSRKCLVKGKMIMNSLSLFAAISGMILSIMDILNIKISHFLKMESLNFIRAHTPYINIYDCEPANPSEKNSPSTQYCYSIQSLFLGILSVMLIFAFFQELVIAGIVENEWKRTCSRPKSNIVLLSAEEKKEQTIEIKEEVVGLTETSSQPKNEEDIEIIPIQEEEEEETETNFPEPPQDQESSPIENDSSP
Description: FACS, mutant-hCD20 MG87 cells; 100%=best antibody. The procedure: as §1

The target in test [11] is T7, mutant human CD20 #7 (Y77F, N163D) (human, UniProt P11836 1-297).
T7 construct: Stably expressed on MG87 cells
T7 chain: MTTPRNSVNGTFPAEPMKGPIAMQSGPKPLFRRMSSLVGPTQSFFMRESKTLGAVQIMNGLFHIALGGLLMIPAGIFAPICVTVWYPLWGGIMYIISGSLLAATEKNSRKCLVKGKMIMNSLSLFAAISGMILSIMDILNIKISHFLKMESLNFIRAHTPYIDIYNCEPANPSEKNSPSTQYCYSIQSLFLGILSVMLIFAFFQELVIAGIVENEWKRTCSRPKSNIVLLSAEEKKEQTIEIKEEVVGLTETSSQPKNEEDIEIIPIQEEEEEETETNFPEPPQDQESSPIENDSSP
Description: FACS, mutant-hCD20 MG87 cells; 100%=best antibody. The procedure:
as §1

Test [12] concerns the target T8, mutant human CD20 #8 (Y77F, N163D, N166D) (human, UniProt P11836 1-297).
T8 construct: Stably expressed on MG87 cells
T8 chain: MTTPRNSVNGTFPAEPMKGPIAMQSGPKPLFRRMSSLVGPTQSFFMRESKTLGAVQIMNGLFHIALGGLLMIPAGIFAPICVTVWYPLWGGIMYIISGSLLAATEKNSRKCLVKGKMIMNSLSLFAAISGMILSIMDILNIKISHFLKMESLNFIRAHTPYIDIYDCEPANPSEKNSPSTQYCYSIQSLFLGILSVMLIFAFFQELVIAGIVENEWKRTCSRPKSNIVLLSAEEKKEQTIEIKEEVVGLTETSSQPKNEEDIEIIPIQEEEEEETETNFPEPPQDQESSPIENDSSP
Description: FACS, mutant-hCD20 MG87 cells; 100%=best antibody. The protocol:
as §1

Test [13] concerns the target T9, mutant human CD20 #9 (N163D, N166D) (human, UniProt P11836 1-297).
T9 construct: Stably expressed on MG87 cells
T9 chain: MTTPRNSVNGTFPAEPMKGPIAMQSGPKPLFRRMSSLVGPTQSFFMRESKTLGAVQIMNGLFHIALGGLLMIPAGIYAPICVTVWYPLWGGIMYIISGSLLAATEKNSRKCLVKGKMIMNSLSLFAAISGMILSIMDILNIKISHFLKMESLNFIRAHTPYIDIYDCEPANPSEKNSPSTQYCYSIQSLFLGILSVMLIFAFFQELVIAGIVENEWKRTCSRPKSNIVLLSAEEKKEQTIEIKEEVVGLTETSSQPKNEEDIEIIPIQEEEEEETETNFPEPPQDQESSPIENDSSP
Description: FACS, mutant-hCD20 MG87 cells; 100%=best antibody. The procedure:
as §1

Test [14] has as its target T10, mutant human CD20 #10 (A157V) (human, UniProt P11836 1-297).
T10 construct: Stably expressed on MG87 cells
T10 sequence: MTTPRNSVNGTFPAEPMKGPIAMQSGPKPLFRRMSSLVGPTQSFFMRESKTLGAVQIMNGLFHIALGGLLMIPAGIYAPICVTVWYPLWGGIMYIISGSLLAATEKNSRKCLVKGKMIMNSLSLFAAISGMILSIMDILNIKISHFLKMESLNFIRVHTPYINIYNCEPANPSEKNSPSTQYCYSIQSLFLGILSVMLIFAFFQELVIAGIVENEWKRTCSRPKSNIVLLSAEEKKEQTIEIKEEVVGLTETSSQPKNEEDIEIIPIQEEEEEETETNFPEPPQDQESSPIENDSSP
Description: FACS, mutant-hCD20 MG87 cells; 100%=best antibody. The procedure: as §1

Where two headings read alike, the source gives them in different places.

B1: rituximab (RITUXAN, IDEC Pharmaceuticals Corp.) (antibody, V domains shown)
VH: QVQLQQPGAELVKPGASVKMSCKASGYTFTSYNMHWVKQTPGRGLEWIGAIYPGNGDTSYNQKFKGKATLTADKSSSTAYMQLSSLTSEDSAVYYCARSTYYGGDWYFNVWGAGTTVTVSA
VL: QIVLSQSPAILSASPGEKVTMTCRASSSVSYIHWFQQKPGSSPKPWIYATSNLASGVPVRFSGSGSGTSYSLTISRVEAEDAATYYCQQWTSNPPTFGGGTKLEIK
Turning to B1, in test [1], the “CDC, Daudi EC50” value was 840 pM and the “CDC, RL EC50” value is greater than 50000 pM. Besides, in test [2], the “% Cytotoxicity (CDC, Daudi), 0 hour” value is 98.5%; the “% Cytotoxicity (CDC, Daudi), 1 hour” value is 86.9%; the “% Cytotoxicity (CDC, Daudi), 6 hour” value amounted to 16%. Also, in [3], the “% Cytotoxicity (CDC, Daudi), 0 hour” value turned out to be 91.9%; the “% Cytotoxicity (CDC, Daudi), 1 hour” value was 65.3%; the “% Cytotoxicity (CDC, Daudi), 6 hour” value was 52.1%. Further, in test [4], the “% Cytotoxicity (CDC, Daudi), 0 hour” value was 98.3%; the “% Cytotoxicity (CDC, Daudi), 1 hour” value was found to be 81.1%; the “% Cytotoxicity (CDC, Daudi), 6 hour” value was 20.5%. In addition, the “Total Mean Fluorescent Intensity” value in [5] came to 2960.

B2: 2F2 (antibody, V domains shown)
VH: EVQLVESGGGLVQPGRSLRLSCAASGFTFNDYAMHWVRQAPGKGLEWVSTISWNSGSIGYADSVKGRFTISRDNAKKSLYLQMNSLRAEDTALYYCAKDIQYGNYYYGMDVWGQGTTVTVSS
VL: EIVLTQSPATLSLSPGERATLSCRASQSVSSYLAWYQQKPGQAPRLLIYDASNRATGIPARFSGSGSGTDFTLTISSLEPEDFAVYYCQQRSNWPITFGQGTRLEIK
In the case of B2, the “Percent of Binding to Mutant Human CD20” value was 60% in test [6]; 30% in [7]; 70% in test [8]; 51% in [9]; 1% in test [10]; 1% in [11]. Moreover, the entries for the “Percent of Binding to Mutant Human CD20” value in test [12], in test [13] and in test [14] were 0%, 4% and 79%, respectively.

For the origin of these results see US20090035322A1 (Regeneron, published 2009).
